IC50 data for eight molecules are collected here from patent US20260055143A1 (published 2026).

A word on the IC50: it is the midpoint of a concentration-inhibition curve. Higher therefore signals a need for much substance.

Like-named read-outs stand apart in the source and are kept apart here. Where no end group is shown, it is not given here. [ ]: non-standard residue; d: D form. The star is where a group is joined. Biotin = O=C1N[C@H]2[C@H](CS[C@H]2CCCCC(=O)*)N1; pY = N[C@@H](Cc1ccc(OP(=O)(O)O)cc1)C(=O)O; Ahx = NCCCCCC(=O)O

The target in assay [1] is T1, pTyr-containing peptide (pEZ) derived from Ezrin, PPV{pTyr}EPVS (also: N-terminal fluorescein (FP) or biotin via two aminocaproic acids (ELISA)).
T1 peptide: PPV[pY]EPVS
The assay is described as follows: competition binding.

Assay [2] deals with T1, pTyr-containing peptide (pEZ) derived …. The assay is described as follows: competition binding.
The target in assay [3] is T2, Phosphopeptide QGVI{pTyr}SDLNLP.
T2 peptide: {Biotin-Ahx-Ahx}-QGVI[pY]SDLNLP
Briefly: competition binding.

The target of assay [4] is T3, Phosphopeptide KQVE{pTyr}LDLDLD.
T3 peptide: {Biotin-Ahx-Ahx}-KQVE[pY]LDLDLD
Briefly: competition binding.

Assay [5] concerns the target T4, pMT peptide EEPQ{pTyr}EEIPIY.
T4 peptide: {Biotin-Ahx-Ahx}-EEPQ[pY]EEIPIY
The assay is described as follows: competition binding.

For assay [6] the target is unchanged. Briefly: competition binding.
In assay [7] the target is T5, Phosphopeptide PPPT{pTyr}TEVDP.
T5 peptide: {Biotin-Ahx-Ahx}-PPPT[pY]TEVDP
The assay is described as follows: competition.

B1: Fes^sSrc, Fes SH2 domain with the sSrc superbinder motif grafted (designed binder)
chain: MKIEEHHHHHHSSGKLGLNDIFEAQKIEWHESSGEDLYFQSGTTMDDYKDDDDKGGSEVQKPLHEQLWYHGAIPRAEVAELLVHSGDFLVRESETVKGAYALSVLWDGLPRHFLIQSLDNLYRLEGEGFPSIPLLIDHLLSTQQPLTKKSGVVLHRAVPSR
Take B1: the IC50 in assay [1] was found to be 70 nM; in assay [2], 42 nM.

B2: Ptn6_C^G-αA2-R sFes (protein)
chain: MKIEEHHHHHHSSGKLGLNDIFEAQKIEWHESSGEDLYFQSGTTMDDYKDDDDKGSLNCSDPTSERWYHGHMSRGQAETLLQAKGEPWTFLVREGQSQPDFVLSVLSDQPKAGPGSPLRVTHIIVMCEGGRYTVGGLETFDSLTDLVEHFKKTGIEEASGAFVYLRQPYYATRVNAADSR
Regarding B2, the IC50 in assay [3] came out at 900 nM.

B3: sFes^1 (SuperFes), superbinder Fes SH2 domain variant (designed binder)
chain: MKIEEHHHHHHSSGKLGLNDIFEAQKIEWHESSGEDLYFQSGTTMDDYKDDDDKGGSEVQKPLHEQLWYHGAIPRAEVAELLVHSGDFLVREGQSQPDYVLSVLWDGLPRHFIIQSLDNLYRLEGEGFPSIPLLIDHLLSTQQPLTKKSGVVLHRAVPSR
For the molecule B3, the IC50 in assay [1] came to 4 nM; in assay [2] it was 1.6 nM.

B4: Ptn11_N^G-αA2-R sFes (protein)
chain: MKIEEHHHHHHSSGKLGLNDIFEAQKIEWHESSGEDLYFQSGTTMDDYKDDDDKGGSGSMTSRRWFHPNITRVEAENLLLTRGVDGSFLARPGQSQPDFVLSVRRNGAVTHIIIQNTGDYYDLYGGEKFATLAELVQYYMEHHGQLKEKNGDVIELKYPLNCADSR
On to B4, for which the IC50 in assay [4] is 74 nM.

B5: Src^sFes, Src SH2 domain with the sFes superbinder motif grafted (designed binder)
chain: MKIEEHHHHHHSSGKLGLNDIFEAQKIEWHESSGEDLYFQSGTTMDDYKDDDDKGGSDGIQAEEWYFGKITRRESERLLLNAENPRGTFLVREGQSQPDYVLSVSDFDNAKGLNVKHYIIRKLDSGGFYITSRTQFNSLQQLVAYYSKHADGLCHRLTTVCPSR
Turning to B5, the IC50 was determined as 21 nM in assay [5] and 4.3 nM in assay [6].

B6: Ptn11_N^G-αA2-R sSrc (protein)
chain: MKIEEHHHHHHSSGKLGLNDIFEAQKIEWHESSGEDLYFQSGTTMDDYKDDDDKGGSGSMTSRRWFHPNITRVEAENLLLTRGVDGSFLARPSETVKGAFALSVRRNGAVTHILIQNTGDYYDLYGGEKFATLAELVQYYMEHHGQLKEKNGDVIELKYPLNCADSR
Turning to B6, in assay [4], the IC50 was 17 nM.

B7: Fes SH2 domain, wild type (Fes^wt) (other)
chain: WYHGAIPRAEVAELLVHSGDFLVRESQGKQEYVLSVLWDGLPRHFIIQSLDNLYRLEGEGFPSIPLLIDHLLSTQQPLTKKSGVVLHRAV
B7: the IC50 in assay [1] turned out to be 6000 nM; in assay [2], 4600 nM.

B8: Ptn11_C^G-αA2-R sSrc (protein)
chain: MKIEEHHHHHHSSGKLGLNDIFEAQKIEWHESSGEDLYFQSGTTMDDYKDDDDKGSLNCADPTSERWFHGHLSRKEAEKLLTEKGKHGSFLVRESETVKGAFALSVRTGDDKGESNDGKSKVTHVLIRCQELKYDVGGGERFDSLTDLVEHYKKNPMVETLGTVLQLKQPLNTTRINAADSR
With B8, in assay [7], the IC50 amounted to 1900 nM.
